Measured values as given in the RNAGym collection of RNA variant scans (doi:10.1073/pnas.2313332121).

B1: TPR t1 (parent)
chain: GACCAAUCUGCCCUCAGAGCUCGAGAACAUCUUCGGAUGCAGAGGAGGCAGGCUUCGGUGGCGCGAUAGCGCCAACGUCCUCAACCUCCAAUGCAUCCCACCACAUGAUGAUGCCUGAAGAGCCUUGGUUUUUUG

Variants of: B1
Assay: polymerase ribozyme fitness, log enrichment relative to wild type (log ratio); higher = more active; in vitro selection for triplet polymerase activity
In short: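 For each subunit of a heterodimeric triplet polymerase ribozyme, a mutant library was built by PCR and transcribed, then taken through a single in vitro selection round in triplicate. Selection involved annealing to a biotinylated primer, the partner subunit and triplets, incubation frozen at −7 °C, gel excision of extended constructs, capture on streptavidin beads and RT-PCR. Genotypes were retained after Illumina sequencing of inputs and outputs only with ≥10 input reads and ≥1 read in each output. Fitness is defined as the logarithm of a genotype's enrichment relative to wild-type enrichment, using inverse-variance-weighted averages across replicates, with the logarithm taken to base 2.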

| Variant | polymerase ribozyme fitness (log ratio) |
| --- | --- |
| C49A U96A | -1.29 |
| G17A G93A A121C | -1.03 |
| C13U C28A G47U | -4.54 |
| C34G G57C C72A A100C | -4.64 |
| C73A U130C | -0.0885 |
| C12G C76A A95U C115U | -4.26 |
| A43G G60U U78C | -2.18 |
| C34A G57A C72U G93A | -5.18 |
| C11G U14A G19U U55G U92G A121G | -3.45 |
| C79U U87A | 0.23 |
| G36U U55C A66C | -3.51 |
| A16G G61A A74C U78G U112A | -4.17 |
| C40U G63C A74C U131A | -2.75 |
| G69U A84U A90U | -0.387 |
| A84C U96C A121G U125A | 1.66 |
| U55A C73U C85A C115G | -3.38 |
| C4G G61A U78A A83G C124U U125G | -1.07 |
| A2U G60U C82G | -3.31 |
| C49U G63C G93C C124U | -0.998 |
| C86G U112C | -1.94 |
| C20G U96G | -3.91 |
| A95C C123G U132A | -0.459 |
| C53U A68G | -2.76 |
| C22G G63U | -4.31 |

| Variant | polymerase ribozyme fitness (log ratio) |
| --- | --- |
| C12G A37G | 0.106 |
| C64U U129G | -1.46 |
| C11A C49G | -1.67 |
| A6G A90U | -0.939 |
| C12G C89U C97A G113C | -6.48 |
| G19C C20U C64U | -1.8 |
| A16U C89G U130C | -2.31 |
| C123U U132A | 2.23 |
| A24G G77U G113U G122U C124A | -6.49 |
| C8U U9C C12U G71U U132A | 0.729 |
| G61A A95U | 0.338 |
| C64G C115A G128A U130C | -5.49 |
| C73A C101G | -1.26 |
| C62A U109G | -6.74 |
| A37G A111C C124G | 0.322 |
| A103G C124U | -3.1 |
| G10U A29C G60A | -3.27 |
| G44U A46U C89A | -0.411 |
| C12G G39U C53G | -0.932 |
| C15A C70G | -3.97 |
| C79G U109A | -7.49 |
| C56A C88A | -0.627 |
| A29C G44C C53U C85A C124G | -4.76 |
| C3A G52U G60U | -1.88 |

| Variant | polymerase ribozyme fitness (log ratio) |
| --- | --- |
| U7C A16G C20U G120U | -2.78 |
| C64U C72A A108C | -5.82 |
| U9A G42A U129A | -2.88 |
| G48A C124U U133G | 0.41 |
| C89A | -1.27 |
| C72G U125A U133C | -0.433 |
| G47U | -1.72 |
| C62U U106A | 0.471 |
| G60A C88G G120C | -0.823 |
| U9C C11U G60C G71U U133A | -4.61 |
| A6G U9C C13G C89U A90U C94U A105U A121G | -2.84 |
| G35A G58A U78A C104U | -4.33 |
| C72U C82A | -0.812 |
| A29C A74U | -2.93 |
| U78C C79G U106A | -0.519 |
| G44C U106G G110A A119G | -4.41 |
| G39C G63A C76A G117C | -6.26 |
| C70A | -1.51 |
| C3G G39U | -2.39 |
| U87A G127U | -0.745 |
| A5G G36U G63C A111C A119C | -4.21 |
| A43G C124G | 0.268 |
| C12U A75U | 0.0801 |
| C12U A26U C94U A118G | -2.71 |

| Variant | polymerase ribozyme fitness (log ratio) |
| --- | --- |
| U54G G60A | -4.1 |
| C62A C85U | -0.762 |
| C56U G69A U78G A83C | -4.4 |
| C72U C97G | -4.65 |
| C28U C70G | -4.94 |
| G58U A75U C79A C89A G120C C123U | -4.72 |
| C49G G61A A95C | -1.32 |
| G63U C94G A121U | 0.0576 |
| A16G G39U C53G | -2.41 |
| G60A G110A | -1.52 |
| C70U G77U C94A U116C A121C | -2.35 |
| C12G G19C G57A A119G U131A | -3.15 |
| U7C C98U U112A | -1.84 |
| C8U G61A A95U G120A | 1.6 |
| C8A U9A A50U C80U A84C | -2.54 |
| G19U A26U C114A | -1.45 |
| C8A A37G C62G C99U G122A | -6.04 |
| G42A U130C U133A | -1.86 |
| C70A A105G | -4.48 |
| C8U C22G C104G G117A U125G | -4.71 |
| C3G C4G G25U C28U C34U G71U G107U U112G C114A A121G | -6.59 |
| C11U A50U G57A | -1.89 |
| G42U U54G A68G | -5.22 |
| C114U G117U | -5.77 |

| Variant | polymerase ribozyme fitness (log ratio) |
| --- | --- |
| A27U A68G | -5.61 |
| C15G C53U C85G | -4.35 |
| C8U C53A C99U C101G | -3.52 |
| G10C U32C G113U | -3.81 |
| G42U A119U | -1.27 |
| U7C C20G | -4.91 |
| C49U C115U | -1.16 |
| A18U G44U C124U | -1.28 |
| C20U A37U C56U | -1.39 |
| C13A G113A | -2.48 |
| C73G A111C | -0.327 |
| G47A C49U G65U G69U C86U G127U | -4.94 |
| U38A G58C C70U C115A | -1.72 |
| A105C G110U | -3.75 |
| A29U C97A A121U | -4.33 |
| A16U C70U | -1.98 |
| C22A A37U A43C C114A A118G | -6.5 |
| C70G A100C | -4.69 |
| U9A U106A | 0.641 |
| A91G C115G | -4.4 |
| C12A C13U G39U | -0.844 |
| C34A G61A C94A | -3.89 |
| C82G A83C | -0.655 |
| C70U A74G | -1.83 |

| Variant | polymerase ribozyme fitness (log ratio) |
| --- | --- |
| G10U C97U | -0.693 |
| C89G C104U | -0.672 |
| G39U A46G | -1.02 |
| C4A A24G | -4.5 |
| G42A C73G C79A U130A | -5.42 |
| C13A G52A C53U A75U U81G G120U C124U G127U | -1.17 |
| C11A C12U G57U U87G G93A C102A | -4.56 |
| A41G C72A C98U C124U | 0.986 |
| G63U U109G | -6.35 |
| A5G G10A C72U A91U | -2.06 |
| C12G C40U U55A C82G | -0.877 |
| A46U G48A G52C G61U G120A | -0.93 |
| C12G A29C | -1.57 |
| C40G C72U G127C | -2.34 |
| C72U C73A U81A C85U G122A | -4.88 |
| A41G C85A C124U G128C U133G | -3.58 |
| C3G C13U G63U A111C | -2.54 |
| G71A A75G C104U | -0.612 |
| C3G G47U C64A A90C C104U G113A | -6.9 |
| C12A G19U G23U G47A G52C G69U G110C | -7.34 |
| A111C G128A | -1.07 |
| C40U A43G U130A | -3.26 |
| G52C G69A | -3.55 |
| A37G C86A | -1.81 |

| Variant | polymerase ribozyme fitness (log ratio) |
| --- | --- |
| G44A G63A A111C G122A | -5 |
| C22G A46G G60A G120A | -4.49 |
| C40G C79U | -1.27 |
| G44A G48C | -1.44 |
| C8G G42A G63A | -2.89 |
| A18U A37C C82G U92C U116A A121G | -5.42 |
| U106C G127C | -1.07 |
| C62U U87G U109A | -5.76 |
| C11G C15G G71U G93A G128U | -4.47 |
| C76A A83C | -0.201 |
| U9C A41C A118U A119G | 0.0807 |
| C70G G120U | -2.36 |
| C73U A100C | -1.34 |
| G107C A121U | -3.13 |
| G48A A111G | -0.578 |
| C12A C124G G127U | 1.3 |
| G71U A105U | -2.22 |
| G47C C70A | -5.04 |
| A27U G47C | -4.91 |
| C3A G44C U112G C124U U125C | -1.64 |
| C40A C64U C85A C102A U112G C123U | -5.99 |
| C15U G23C A27U G45C G113C | -6.21 |
| U9G U38C A46C U59C A66U U81A | -5.6 |
